Test results: the supplement of paper PMC10201428
± gives the standard deviation of the averaged measurements.

B1: library; a variant is named by its letters at N, in order (parent)
chain: ACATTTGTTGATACAACCATAAAATGATAATTACACCCATAAATTGATAATTATCACACCCANNNNNNNNNNNNNNCTCTGATCATAGTCAGACCAACATTGCTACGACCCGTATTCGCACCGACAC

Columns and labels:
[1] = variants of: B1; test: relative integration efficiency (T-RL orientation) vs wild-type transposon end (log2 (normalized fold change)); transposon end mutated: right end (5 bp flank + 75 bp right end); higher = more efficient transposition; conditions: with VchCAST RNA-guided transposition machinery (E. coli BL21(DE3) host, lacZ target)
Method in brief: (§1)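 A T7-driven effector plasmid encoding a CRISPR array, tniQ-cas8-cas7-cas6 and tnsA-tnsB-tnsC was co-transformed into E. coli BL21(DE3) together with a pUC57 mini-transposon donor holding barcoded pools of 1549 left-end or 1849 right-end variants. Transformants were plated with 0.1 mM IPTG at 37°C for 18 h. Illumina sequencing of PCR-amplified input plasmids and genomic integration junctions gave barcode abundances, and relative integration efficiency is their output/input fold change, normalised to reference barcodes and log-transformed.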

[2] = variants of: B1; test: relative integration efficiency (T-LR orientation) vs wild-type transposon end (log2 (normalized fold change)); transposon end mutated: right end (5 bp flank + 75 bp right end); higher = more efficient transposition; conditions: with VchCAST RNA-guided transposition machinery (E. coli BL21(DE3) host, lacZ target)
Method in brief: as §1

| Variant | relative integration efficiency (log2) [1] | relative integration efficiency (log2) [2] |
| --- | --- | --- |
| ATTTAACTATAACG T44C | -0.948 ± 0.24 | 2.28 ± 0.14 |
| ATTTAACTATAACG T44A | -0.682 ± 0.22 | 2.32 ± 0.13 |
| ATTTAACTATAACG T44G | -0.646 ± 0.027 | 2.17 ± 0.033 |
| ATTTAACTATAACG G26A | -1.27 ± 0.28 | 2.69 ± 0.084 |
| ATTTAACTATAACG G26T | -1.75 ± 0.32 | 2.24 ± 0.073 |
| ATTTAACTATAACG G26C | -2.84 ± 0.47 | 1.17 ± 0.16 |
| ATTTAACTATAACG C38T | -0.901 ± 0.15 | 2.05 ± 0.13 |
| ATTTAACTATAACG C38G | -0.843 ± 0.15 | 2.06 ± 0.035 |
| ATTTAACTATAACG C38A | -1.04 ± 0.17 | 2.02 ± 0.11 |
| ATTTAACTATAACG T40C | -1.72 ± 0.32 | 1.196 ± 0.0054 |
| ATTTAACTATAACG T40G | -2.18 ± 0.11 | 0.496 ± 0.47 |
| ATTTAACTATAACG T40A | -1.01 ± 0.19 | 1.82 ± 0.13 |
| ATTTAACTATAACG G46T | -1.25 ± 0.4 | 1.87 ± 0.23 |
| ATTTAACTATAACG G46C | -1.79 ± 0.26 | 1.05 ± 0.12 |
| ATTTAACTATAACG G46A | -1.36 ± 0.26 | 2.007 ± 0.0045 |
| ATTTAACTATAACG A50T | -1.29 ± 0.33 | 2.34 ± 0.11 |
| ATTTAACTATAACG A50C | -1.36 ± 0.36 | 2.44 ± 0.1 |
| ATTTAACTATAACG A50G | -1.62 ± 0.3 | 2.18 ± 0.28 |
| TTTTATGATATTGC | -0.0751 ± 0.044 | 0.744 ± 0.14 |
| ATTTAACTATAACG C61G | -0.633 ± 0.14 | 2.57 ± 0.16 |
| ATTTAACTATAACG C61A | -0.657 ± 0.15 | 2.0647 ± 0.00092 |

| Variant | relative integration efficiency (log2) [1] | relative integration efficiency (log2) [2] |
| --- | --- | --- |
| ATTTAACTATAACG T8G | -6.07 ± 0.37 | -5.36 ± 1.4 |
| ATTTAACTATAACG T8A | -1.56 ± 0.29 | 0.918 ± 0.079 |
| ATTTAACTATAACG T8C | -1.8 ± 0.42 | -0.0325 ± 0.43 |
| ATTTAACTATAACG A56T | -0.909 ± 0.39 | 2.57 ± 0.2 |
| ATTTAACTATAACG A56C | -1.09 ± 0.21 | 2.32 ± 0.19 |
| ATTTAACTATAACG A62C | -1.03 ± 0.27 | 2.22 ± 0.21 |
| ATTTAACTATAACG C36G | -1.16 ± 0.22 | 1.95 ± 0.11 |
| ATTTAACTATAACG C36A | -0.593 ± 0.052 | 2.4 ± 0.13 |
| ATTTAACTATAACG A53C | -1.32 ± 0.33 | 2.49 ± 0.26 |
| ATTTAACTATAACG A53G | -1.38 ± 0.34 | 2.239 ± 0.0053 |
| ATTTAACTATAACG C57A | -0.68 ± 0.085 | 2.48 ± 0.17 |
| ATTTAACTATAACG C57G | -0.953 ± 0.42 | 2.5 ± 0.16 |
| ATTTAACTATAACG T32G | -1.87 ± 0.28 | 2.2 ± 0.18 |
| ATTTAACTATAACG T32A | -1.5 ± 0.28 | 2.13 ± 0.036 |
| ATTTAACTATAACG A49T | -1.3 ± 0.35 | 2.31 ± 0.04 |
| ATTTAACTATAACG A49C | -1.46 ± 0.19 | 2.17 ± 0.094 |
| ATTTAACTATAACG T28C | -1.29 ± 0.26 | 2.16 ± 0.037 |
| ATTTAACTATAACG T28G | -1.52 ± 0.28 | 1.89 ± 0.21 |
| ATTTAACTATAACG T54C | -1.04 ± 0.22 | 2.37 ± 0.24 |
| ATTTAACTATAACG T54G | -1.12 ± 0.37 | 2.49 ± 0.13 |
| ATTTAACTATAACG T54A | -1.14 ± 0.19 | 2.49 ± 0.12 |

| Variant | relative integration efficiency (log2) [1] | relative integration efficiency (log2) [2] |
| --- | --- | --- |
| ATTTAACTATAACG T45A | -1.14 ± 0.22 | 1.93 ± 0.065 |
| ATTTAACTATAACG T45G | -1.16 ± 0.28 | 1.56 ± 0.031 |
| ATTTAACTATAACG C34A | -1.12 ± 0.27 | 2.11 ± 0.056 |
| ATTTAACTATAACG C34G | -1.76 ± 0.18 | 1.73 ± 0.16 |
| ATTTAACTATAACG G7C | -1.39 ± 0.16 | 1.24 ± 0.17 |
| ATTTTTGATATTGC | -0.244 ± 0.095 | 1.64 ± 0.1 |
| ATTTAACTATAACG T12G | -0.699 ± 0.2 | 1.76 ± 0.15 |
| ATTTAACTATAACG T12A | -0.998 ± 0.097 | 2.03 ± 0.032 |
| ATTTAACTATAACG T52G | -1.31 ± 0.41 | 2.29 ± 0.27 |
| ATTTAACTATAACG T52A | -1.26 ± 0.2 | 2.3 ± 0.12 |
| ATTTAACTATAACG T6A | -6.98 ± 0.9 | -4.12 ± 0.43 |
| ATTTAACTATAACG T6G | -6.3 ± 0.14 | -5.38 ± 0.28 |
| ATTTAACTATAACG T31G | -1.44 ± 0.31 | 2.54 ± 0.17 |
| ATTTAACTATAACG T31A | -1.32 ± 0.36 | 2.39 ± 0.16 |
| ATTTAACTATAACG T31C | -0.932 ± 0.22 | 2.62 ± 0.071 |
| ATTTAACTATAACG T25G | -1.44 ± 0.3 | 1.851 ± 0.01 |
| ATTTAACTATAACG T25A | -1.13 ± 0.11 | 2.26 ± 0.046 |
| ATTTAACTATAACG T25C | -1.07 ± 0.25 | 2.2 ± 0.17 |
| ATTTAACTATAACG T51G | -1.67 ± 0.15 | 2.1 ± 0.14 |
| ATTTAACTATAACG T51A | -1.46 ± 0.28 | 2.29 ± 0.1 |
| ATTTAACTATAACG T51C | -1.04 ± 0.24 | 2.48 ± 0.17 |

| Variant | relative integration efficiency (log2) [1] | relative integration efficiency (log2) [2] |
| --- | --- | --- |
| ATTTAACTATAACG C18T | -0.685 ± 0.013 | 2.16 ± 0.14 |
| ATTTAACTATAACG C18G | -1.04 ± 0.083 | 1.98 ± 0.099 |
| ATTTAACTATAACG C18A | -0.906 ± 0.082 | 2.01 ± 0.13 |
| ATTTAACTATAACG T9A | -0.86 ± 0.087 | 2.15 ± 0.18 |
| ATTTAACTATAACG T9C | -0.756 ± 0.26 | 2.493 ± 0.0031 |
| ATTTAACTATAACG T9G | -0.534 ± 0.082 | 2.39 ± 0.12 |
| ATTTAACTATAACG C14G | -0.937 ± 0.17 | 1.76 ± 0.15 |
| ATTTAACTATAACG T48G | -1.18 ± 0.2 | 1.85 ± 0.083 |
| ATTTAACTATAACG T48C | -1.24 ± 0.25 | 2.03 ± 0.086 |
| ATTTAACTATAACG A58T | -0.708 ± 0.029 | 2.39 ± 0.19 |
| ATTTAACTATAACG A58C | -0.52 ± 0.37 | 2.86 ± 0.073 |
| ATTTAACTATAACG G10C | -1.15 ± 0.31 | 0.7 ± 0.19 |
| ATTTAACTATAACG G10T | -1.54 ± 0.43 | 0.15 ± 0.026 |
| ATTTAACTATAACG G10A | -0.62 ± 0.18 | 1.89 ± 0.087 |
| ATTTAACTATAACG C55G | -1.37 ± 0.28 | 2.381 ± 0.011 |
| ATTTAACTATAACG C55A | -1.63 ± 0.35 | 2.34 ± 0.071 |
| ATTTAACTATAACG C55T | -1.15 ± 0.35 | 2.56 ± 0.14 |
| ATTTAACTATAACG T20G | -2 ± 0.4 | 0.721 ± 0.045 |
| ATTTAACTATAACG T20A | -1.07 ± 0.11 | 2.04 ± 0.098 |
| ATTTAACTATAACG T20C | -1.47 ± 0.3 | 1.3 ± 0.48 |
